Read-outs that look alike come from different tables or passages of the source. One block for each binder: values may come before it. Bridge positions count the residues as written; N and C are the ends. Square brackets hold non-standard residues; d marks the D form. Ends that are not written are not given here. * marks the point of attachment. Biotin = O=C1N[C@H]2[C@H](CS[C@H]2CCCCC(=O)*)N1
Key:
[1] = target: chemokine receptors on THP-1 cells; experiment: cell-based or functional assay
[2] = target: T1, Duffy Antigen Receptor for Chemokines (DARC) (human, UniProt Q16570 1-336); experiment: estimated ka for binding to red blood cells divided by average inhibitory ED50 (THP-1 migration)
T1 construct: whole, on cells
T1 sequence (looked up): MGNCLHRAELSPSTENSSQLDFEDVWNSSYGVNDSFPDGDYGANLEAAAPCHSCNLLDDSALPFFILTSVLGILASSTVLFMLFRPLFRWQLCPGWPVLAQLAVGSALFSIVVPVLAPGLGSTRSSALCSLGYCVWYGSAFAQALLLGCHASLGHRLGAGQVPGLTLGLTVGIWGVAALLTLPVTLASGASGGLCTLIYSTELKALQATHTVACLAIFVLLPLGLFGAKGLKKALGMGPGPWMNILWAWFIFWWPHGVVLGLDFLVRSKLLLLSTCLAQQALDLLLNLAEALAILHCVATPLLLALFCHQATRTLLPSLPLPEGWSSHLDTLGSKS
Protocol: Counts associated with the cells are then determined by gamma-counting scintigraphy. […] Furthermore, Scatchard analysis confirms the presence of a single high affinity binding site with 500–1000 copies per cell, consistent with the known properties of DARC.
The DARC specificity ratio is also determined. The DARC specificity ratio is defined as the estimated ka for association with DARC divided by the $ED50$ for biological activity. […] Thus, it may be difficult to achieve biologically active (as a chemokine inhibitor) concentrations of these peptides in vivo without further modifications of the peptide.
Footnotes [a]'CC-specificity' is the average inhibitory ED$50$ versus SDF1 and IL8 divided by average inhibitory ED$50$ versus MCP-1 and MIP1α. [b]'Duffy selectivity' is the estimated ka for binding to red blood cells divided by average inhibitory ED$50$ versus each of the chemokines (except for peptide 2; see footnote d below). [c]'Average ED$50$' is the average inhibitory ED$50$ for inhibition of THP-1 migration induced by each of the chemokines (except for peptide 2; see footnote e below). [d]For the peptide 2 family, the 'average ED$50$' is the estimated ka for binding to THP-1 cells. [e]For the peptide 2 family, the 'Duffy selectivity' is calculated as the ka for binding to red blood cells divided by the ka for binding THP1-1 cells. [f]For tripeptide derivatives so marked, the peptide is highly specific for one of the four exemplary chemokines.

[3] = target: T2, Duffy Antigen Receptor for Chemokines (DARC) (human, UniProt Q16570 1-336); experiment: DARC binding
T2 chain: T1 sequence (looked up)

[4] = target: chemokine receptors on THP-1 cells; experiment: biotinylated peptide binding to the surface of THP-1 cells; printed as 'ka' in µM
[5] = target: T1, Duffy Antigen Receptor for Chemokines …; experiment: ka for binding to red blood cells divided by ka for binding to THP-1 cells
[6] = target: chemokine receptors on THP-1 cells; experiment: binding to chemokine receptors on THP-1 cells; given as 'association constant'
[7] = target: chemokine receptors on THP-1 cells; experiment: estimated ka for binding to THP-1 cells, printed under 'AVERAGE ED50 (µM)'
[8] = target: chemokine receptors on THP-1 cells; experiment: cell-based or functional assay; remark: listed apart in the source
[9] = target: T3, Duffy Antigen Receptor for Chemokines (DARC) (human) (UniProt Q16570); experiment: estimated ka for binding to red blood cells divided by average inhibitory ED50 (THP-1 migration)
T3 sequence (looked up): T1 sequence (looked up)

[10] = target: T3, Duffy Antigen Receptor for Chemokines (DARC) (human); experiment: DARC binding on red blood cells; given as 'association constant'
[11] = target: T4, Duffy Antigen Receptor for Chemokines (DARC) (human), Q16570; experiment: DARC binding; details: modification not given
T4 chain: T1 sequence (looked up)

[12] = target: T4, Duffy Antigen Receptor for Chemokines …; experiment: Duffy binding
[13] = target: T4, Duffy Antigen Receptor for Chemokines …; experiment: Duffy binding, LRD against LFL peptide 2(1-15)[MCP-1]
CCR5, P51681 = experiment: method not described; given as 'affinity constant'
CXCR4, P61073 = target: T5, CXCR4, P61073; experiment: method not described; given as 'affinity constant'
T5 chain: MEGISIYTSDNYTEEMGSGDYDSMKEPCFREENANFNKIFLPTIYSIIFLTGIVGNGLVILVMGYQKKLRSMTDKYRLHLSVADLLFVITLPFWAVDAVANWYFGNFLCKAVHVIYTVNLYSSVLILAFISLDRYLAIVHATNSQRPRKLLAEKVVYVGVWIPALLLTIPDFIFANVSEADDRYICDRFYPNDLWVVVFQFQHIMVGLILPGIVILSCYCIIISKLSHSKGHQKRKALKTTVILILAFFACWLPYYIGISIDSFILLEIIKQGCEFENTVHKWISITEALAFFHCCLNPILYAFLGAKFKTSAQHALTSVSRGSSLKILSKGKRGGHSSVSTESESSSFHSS

[14] = target: TGF-beta receptor of THP-1 cells; experiment: biotinylated peptide binding to THP-1 cells

Chain of CCR5, P51681 (P51681 whole entry): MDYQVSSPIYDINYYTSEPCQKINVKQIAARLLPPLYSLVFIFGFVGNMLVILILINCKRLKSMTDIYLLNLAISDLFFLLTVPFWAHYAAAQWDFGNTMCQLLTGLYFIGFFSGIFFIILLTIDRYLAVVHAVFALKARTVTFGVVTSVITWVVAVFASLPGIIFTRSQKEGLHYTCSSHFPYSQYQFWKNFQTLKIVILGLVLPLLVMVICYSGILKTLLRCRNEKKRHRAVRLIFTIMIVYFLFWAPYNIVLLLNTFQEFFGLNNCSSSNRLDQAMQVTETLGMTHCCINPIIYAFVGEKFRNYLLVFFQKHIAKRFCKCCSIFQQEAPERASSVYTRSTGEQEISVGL

Binder: EICADPKQKWIQ [Ile11peptide 3(1-12)[MCP-1]]
ED50 for inhibition of THP-1 migration versus IL8 [1]: 2 µM | ED50 for inhibition of THP-1 migration versus MCP1 [1]: 6 µM | ED50 for inhibition of THP-1 migration versus MIP1α [1]: 4 µM | ED50 for inhibition of THP-1 migration versus SDF1α [1]: 7 µM | average ED50 for inhibition of THP-1 migration induced by each of the chemokines [1]: 5 µM

B1: Leu4Ile11peptide 3(1-12)[MCP-1] (peptide)
peptide: EICLDPKQKWIQ
notes: also called Leu4Ile11pep3; Leu4Ile11peptide 3[MCP-1]
Duffy selectivity [2]: 37.8 ratio | ED50 for inhibition of THP-1 migration versus IL8 [1]: 3 µM | ED50 for inhibition of THP-1 migration versus MCP1 [1]: 2 µM | ED50 for inhibition of THP-1 migration versus MIP1α [1]: 1 µM | ED50 for inhibition of THP-1 migration versus SDF1α [1]: 3 µM | average ED50 for inhibition of THP-1 migration induced by each of the chemokines [1]: 2 µM | inhibition of MCP-1 induced migration [1]: 1 µM

B2: Ser7peptide 3(1-12)[MCP-1] (peptide)
peptide: EICADPSQKWVQ
notes: Mutant of peptide 3; also called Ser7pep3
Duffy selectivity [2]: 2 ratio | ED50 for inhibition of THP-1 migration versus IL8 [1]: 3 µM | ED50 for inhibition of THP-1 migration versus MCP1 [1]: 7 µM | ED50 for inhibition of THP-1 migration versus MIP1α [1]: 6 µM | ED50 for inhibition of THP-1 migration versus SDF1α [1]: 4 µM | average ED50 for inhibition of THP-1 migration induced by each of the chemokines [1]: 5 µM

Binder: EICADPSEEWVQ (not fully specified, also called Ser7Glu8Glu9pep3) [Ser7Glu8Glu9peptide 3(1-12)[MCP-1]]
Duffy selectivity [2]: 0.59 ratio | ED50 for inhibition of THP-1 migration versus IL8 [1]: 9 µM | ED50 for inhibition of THP-1 migration versus MCP1 [1]: 7 µM | ED50 for inhibition of THP-1 migration versus MIP1α [1]: 2 µM | ED50 for inhibition of THP-1 migration versus SDF1α [1]: 5 µM | average ED50 for inhibition of THP-1 migration induced by each of the chemokines [1]: 6 µM

Binder: KQKWVQ (also called Pep3[7-12]; KQKWVQ) [peptide 3(7-12)[MCP-1]]
Duffy selectivity [2]: 2.94 ratio | ED50 for inhibition of THP-1 migration versus IL8 [1]: 6 µM | ED50 for inhibition of THP-1 migration versus MCP1 [1]: 7 µM | ED50 for inhibition of THP-1 migration versus MIP1α [1]: 5 µM | ED50 for inhibition of THP-1 migration versus SDF1α [1]: 6 µM | average ED50 for inhibition of THP-1 migration induced by each of the chemokines [1]: 6 µM

Binder: EICLDPKQKWVQ [Leu4peptide 3(1-12)[MCP-1]]
ED50 for inhibition of THP-1 migration versus IL8 [1]: 3 µM | ED50 for inhibition of THP-1 migration versus MCP1 [1]: 8 µM | ED50 for inhibition of THP-1 migration versus MIP1α [1]: 7 µM | ED50 for inhibition of THP-1 migration versus SDF1α [1]: 3 µM | average ED50 for inhibition of THP-1 migration induced by each of the chemokines [1]: 5 µM

Binder: Biotin-EICADPKQKWVQ [N-terminally biotinylated derivative of peptide 3(1-12)[MCP-1]]
Kd [4]: 10 µM

Binder: CSKPGV
Kd [3]: > 100 µM

Binder: ELRVIESGPHCANTEI (also called Pep2[IL8]) [Pep2(1-16)[IL8]]
Duffy selectivity [5]: < 1 ratio | Kd [7]: 1 to 10 µM

Binder: [dC][dQ][dI][dW][dK][dQ][dK][dP][dD][dL][dC] (disulfide 1-11) [CRD-Cys13Leu4Ile11peptide 3(3-12)[MCP-1]]
Kd [6]: 0.1 to 0.5 µM | ED50 for inhibition of MCP-1 induced THP-1 migration [8]: 0.001 µM | average ED50 for inhibition of THP-1 migration induced by each of the chemokines [8]: 0.1 µM | Duffy selectivity [9]: > 100 | Kd [10]: 90 µM

Binder: [dC][dQ][dV][dW][dK][dQ][dK][dP][dD][dA][dC] (disulfide 1-11 (inferred); not fully specified; printed as -CQVWKQKPDAC--) [CRD-Cys13pep3[3-12]]
average ED50 for inhibition of THP-1 migration induced by each of the chemokines [1]: 0.8 µM | Duffy selectivity [9]: 8.82

Binder: [dV][dA][dE][dK][dP][dC][dK][dS][dS][dT][dI][dR][dR][dY][dS] [LRD peptide 2(1-15)[MCP-1]]
Kd [11]: 18 µM | Kd [12]: 25 µM | fold decrease in Duffy binding against the LFL peptide [13]: 100 fold | Kd (CCR5, P51681): < 0.1 µM | Kd (CXCR4, P61073): < 0.1 µM

Binder: DYFETSSQC
Kd [3]: > 100 µM

B4: peptide 3(3-12)[MCP-1] (peptide)
peptide: CADPKQKWVQ
notes: also called Pep3[3-12]; Pep3(3-12)[MCP-1]
Duffy selectivity [2]: 1.21 ratio | ED50 for inhibition of THP-1 migration versus IL8 [1]: 9 µM | ED50 for inhibition of THP-1 migration versus MCP1 [1]: 8 µM | ED50 for inhibition of THP-1 migration versus MIP1α [1]: 7 µM | ED50 for inhibition of THP-1 migration versus SDF1α [1]: 9 µM | average ED50 for inhibition of THP-1 migration induced by each of the chemokines [1]: 8 µM

Binder: HEPKGYHANFC (also: biotinylated (position not given here)) [Biotinylated T2]
EC50 [14]: 30 µM

Binder: EICADP [peptide 3(1-6)[MCP-1]]
ED50 for inhibition of THP-1 migration versus IL8 [1]: 17 µM | ED50 for inhibition of THP-1 migration versus MCP1 [1]: 33 µM | ED50 for inhibition of THP-1 migration versus MIP1α [1]: 25 µM | ED50 for inhibition of THP-1 migration versus SDF1α [1]: 19 µM | average ED50 for inhibition of THP-1 migration induced by each of the chemokines [1]: 24 µM | Duffy selectivity [9]: 5.32

Binder: KEN
% inhibition of migration induced by IL-8 at 100 µM tripeptide [1]: 70% | % inhibition of migration induced by MCP-1 at 100 µM tripeptide [1]: 21%

Binder: CPKEAV
Kd [3]: > 100 µM

Further lines, results first:

% inhibition of migration induced by RANTES at 100 µM tripeptide [1]: 87%
Binder: SES

Kd [3]: > 100 µM
Binder: VGPKSCQSSTEFYD

Duffy selectivity [5]: > 100 ratio | Kd [6]: 0.1 to 0.9 µM | Kd [7]: 1 to 10 µM | Kd [3]: > 100 µM
B3: peptide 2(1-14)[MIP1α] (peptide)
peptide: DYFETSSQCSKPGV
notes: also called Pep2[MIP1α]; Pep2(1-14)[MIP1α]

Kd [3]: 22 µM
Binder: SYRRITSK

Kd [3]: > 100 µM
Binder: TSSKC

% inhibition of migration induced by MIP1α at 100 µM tripeptide [1]: 65% | ED50 for inhibition of THP-1 migration induced by the one chemokine it is specific for (MIP1α) [1]: 0.8 µM | ED50 for inhibition of THP-1 migration versus MIP1α [1]: 6 µM
Binder: SEE

Duffy selectivity [5]: < 1 ratio | Kd [7]: 1 to 10 µM | Kd [3]: 19 µM
B5: peptide 2(1-15)[SDF1] (peptide)
peptide: HLKILNTPNCALQIV
notes: also called Pep2[SDF1]; Pep2(1-15)[SDF1]

Kd [3]: > 100 µM
Binder: SYRRI

average ED50 for inhibition of THP-1 migration induced by each of the chemokines [1]: 2 µM
Binder: WIQ

Reference: US7067117 (CAMBRIDGE UNIVERSITY TECHNICAL SERVICES, dated 2006)
